Data: the RNAGym collection of RNA variant scans (doi:10.7554/elife.90254)

B1: OR4K15 (parent)
chain: GUUAACGGUCAUAGGCCAUGGAAACUAGGAGCACCAUUUCGCUGCCAGUGAAGAAAUGAACAAAGAAAAUCUGGGCCAGGCAGGCAUCAAAAGAAAUAGUCUUGCGCUCAACCAGAAAGUCUGUAAUCAUUUUAAGGGUA

Variants of: B1
Experiment: self-cleavage, relative activity (ratio to wild type); higher = more cleavage; in vitro, sequencing; the parent is a self-cleaving ribozyme

| Variant | self-cleavage |
| --- | --- |
| GUUAACGGUCAUAGGCCAUGGAAACUAGGAGCACCAUUUCGCUGCCAGUGAAGAAAUGAACAAAGAAAAUCUGGGCCAGGCAGGCAUCAAAAGAGAUAGUCUUGCGAUCAACCAGAAAGUCUGUAAUCAUUUUAAGGGUA | 0.02 |
| GUUAACGGUCAUAGGCCAUGGAAACUAGGAGCGCCAUUUCGCUGCCAGUGAAGUAAUGAACAAAGAAAAUCUGGGCCAGGCAGGCAUCAAAAGAAAUAGUCUUGCGCUCAACCAGAAAGUCUGUAAUCAUUUUAAGGGUA | 1.04 |
| GUUAACGGUCAUAGGCCGUGGAACCUAGGAGCACCAUUUCGCUGCCAGUGAAGAAAUGAACAAAGAAAAUCUGGGCCAGGCAGGCAUCAAAAGAAAUAGUCUUGCGCUCAACCAGAAAGUCUGUAAUCAUUUUAAGGGUA | 0.96 |
| GUUAACGGUCAUAGGCCAUGGAAACUAGGAGCACCACUUCGCUGCCAGUGAAGAAAUGAACAAAGAAAAUCUGGGCCAGGCAGGCAUCAAAAGAAUUAGUCUUGCGCUCAACCAGAAAGUCUGUAAUCAUUUUAAGGGUA | 1.84 |
| GUUAACGGUCAUAGGCCAUGGAAACUAGGAGCACCAUUUCGCUGCAAGUGAGGAAAUGAACAAAGAAAAUCUGGGCCAGGCAGGCAUCAAAAGAAAUAGUCUUGCGCUCAACCAGAAAGUCUGUAAUCAUUUUAAGGGUA | 1.25 |
| GUUAGCGGUCAUAGGCCAUGGAAACCAGGAGCACCAUUUCGCUGCCAGUGAAGAAAUGAACAAAGAAAAUCUGGGCCAGGCAGGCAUCAAAAGAAAUAGUCUUGCGCUCAACCAGAAAGUCUGUAAUCAUUUUAAGGGUA | 0.6 |
| GUUAACGGUCAUAGGCCAUGGAUACUAGGAGCACCAUUUCGCUGCCAGUGAAGAAAUGAACAAAGAAAAUCUGGGCCAGGCAGGCAUCAAAAGAAAUAGCCUUGCGCUCAACCAGAAAGUCUGUAAUCAUUUUAAGGGUA | 2.74 |
| GUUAACGGUCAUAGGCCAUGGAAACUAGGAGCACCAUUUCGCUGCCAGUGAAGAAGUGAACAAAGAAAAUCUGGGCCAGGCAGGCAUCAAAAGAAAUAGUCUUGCGAUCAACCAGAAAGUCUGUAAUCAUUUUAAGGGUA | 0.02 |
| GUUAACGGUCAUAGGCCAUGGAAACUAGGAGCACCAUUUCGCUGCCAGUGAAGAAAUGAACAAAGAGAAUCUGGGUCAGGCAGGCAUCAAAAGAAAUAGUCUUGCGCUCAACCAGAAAGUCUGUAAUCAUUUUAAGGGUA | 0.07 |
| GUUAACGGUCAUAGGCCAUGGAAACUAGGAGCACCAUUUCGCUGCCAGAGAAGAAAUGAACAAAGAAAAUCUGGGCCAGGCAGGCAUCAAAAGAAAUAGUCUUGCGCACAACCAGAAAGUCUGUAAUCAUUUUAAGGGUA | 0.02 |
| GUUAACGGUCAUAGGCCAUGGAAACUAGGGGCACCAUUUCGCUGCCAGUGAAGAAAUGAACAAAGAAAAUCUGGGCCAGGCAGGCAUCAAAAGAAAUAGUCUUGCGCUCAACCAGAAAGUCUGUAAUCAUUUUAAGGGUA | 1.28 |
| GUUAACGGUCAUAGGCCAUGGAAACUAGGAGCACCAUUUCGCUGCCAGUGAAGAAAUGAACAAAGAAAAUCUGAGCCAGGCAGGCAUCAAAAGUAAUAGUCUUGCGCUCAACCAGAAAGUCUGUAAUCAUUUUAAGGGUA | 0.19 |
| GUUAACGGUCAUAGGCCAUGGAAACUAGGAGCACCAUUUCGCCGCCAGUGAAGAAAUGAACAAAGAAAAUAUGGGCCAGGCAGGCAUCAAAAGAAAUAGUCUUGCGCUCAACCAGAAAGUCUGUAAUCAUUUUAAGGGUA | 0.32 |
| GUUAACGGUCAUAGGCCAUGGAAACUAGGAGCGCCAUUUCGCUGCCAGUGAAGAAAUGAACAAUGAAAAUCUGGGCCAGGCAGGCAUCAAAAGAAAUAGUCUUGCGCUCAACCAGAAAGUCUGUAAUCAUUUUAAGGGUA | 0.99 |
| GUUAACGGUCAUAGGCCAUGGAAACUAGGAGCACCAUUUCGCUGCCAGUGAAGAAAUGAACAAAGAAAAUCUGGGCCAGGCAGGCAUCAAAGGAAAUAGUCUUGCGCUCAACCAGAAAGUCUGUAAUCAUUUUAAGGGUA | 1.15 |
| GUUAACGGUCAUAGGCCAUGGAAAUUAGGAGCACCAUUUCGCUGCCAGUGAAGAAAUGAACAAAGAAAAUCUGGGCCAGGCAGGCAUCAAAAGAAAUAGUCUUGCGCUUAACCAGAAAGUCUGUAAUCAUUUUAAGGGUA | 0.48 |
| GUUAACGGUCAUAGGCCAUGGAAACUAGGAGCACCAUUUCGCUGCCAGUGGAGAAAUGAACAAAGAAAAUCUGGGCCAGGCAGGCAUCAAAAGAAAUAGUCUUGCGCUCAACCAGAAAGUCUGUAAUCAUUUUAAGGGAA | 1.48 |
| GUUAACGGUCAUAGGCCAUGGAAACCAGGAGCACCAUUUCGCUGCCAGUGCAGAAAUGAACAAAGAAAAUCUGGGCCAGGCAGGCAUCAAAAGAAAUAGUCUUGCGCUCAACCAGAAAGUCUGUAAUCAUUUUAAGGGUA | 1.55 |
| GUUAACGGUCAUAGGCCAUGGAAACUAGGAGCACCAUUUCGCUGCCAGUGAAGAAAUGAACAAAGAAAAUCUGGUCCAGGCAGGCAUCAAAAGAAAUAGUCUUGCGCUCAACCAGAAAGUCUGUAAUCAUUUUAAGGGUA | 0.12 |
| GUUAACGGUCAUAGGCCAUGGAAACUAGGAGCACCAUUUCGCUGCCAGUGAAGAAAUGAACAAAGAAAAUCUGGGCCAGGCAGGCAUCAAAAGAAAUAGUCUUGCGCUCAACCAGACAGUCUGUAAUCAUUUUAAAGGUA | 0.78 |
| GUUAACGGUCAUAGGCCAUGGAAACUAGGAGCACCAUUUCGCUGCCAGUGAAGAAAUGAACGAAGAAAAUCUGGGCCAGGCAGGCAUGAAAAGAAAUAGUCUUGCGCUCAACCAGAAAGUCUGUAAUCAUUUUAAGGGUA | 1.14 |

| Variant | self-cleavage |
| --- | --- |
| GUUAACGGUCAUAGGCCAUGGAAACUAGGAGCACCAUUUCGCUGCCAGUGAAGAAAUGAACAAAGAAAAUCUGGGCCAGGCCGGCAUCAAAAGAAAUAGUCUUGCGCUCAACCAGAAAAUCUGUAAUCAUUUUAAGGGUA | 0.17 |
| GUUAACGGUCAUAGGCCAUGGAAACUAGGAGCACCAUUUCGCUGCCAGUGAAGAAAUGAACAAAGAAAAUCUGGGCCAGGCAUGCAUCAAAAGAAAUAGUCUUGCGCUCAACCAGAAAGUCUGUAACCAUUUUAAGGGUA | 0.29 |
| GUUAACGGUCAUAGGCCAUGGAAACUAAGAGCACCAUUUCGCUGCCAGUGAGGAAAUGAACAAAGAAAAUCUGGGCCAGGCAGGCAUCAAAAGAAAUAGUCUUGCGCUCAACCAGAAAGUCUGUAAUCAUUUUAAGGGUA | 1.9 |
| GUUAACGGUCAUAGGCCAUGGAAACUAGGAGCACCAUUUCGCUGCCAGUGAAGAAAUGAACAAAGAAAAUCUGGGCCCGGCAGGCAUCAAAAGAAAUAGUCUUGCGCUCAACCAGAAAGUCUGUAAUCAUUCUAAGGGUA | 0.33 |
| GUUAACGGUCAUAGGCCAUGGAAACUAGGAGCACCAUAUCGCUGCCAGUGAAGAAAUGAACAAAGAAAAUCUGGGCCAGGCAGGCAUCAAAAGAAAUAGUCUUGCGCUCAACCAGAUAGUCUGUAAUCAUUUUAAGGGUA | 0.73 |
| GUUAACGGUCAUAGCCCAUGGAAACUAGGAGCACCAUUUCGCCGCCAGUGAAGAAAUGAACAAAGAAAAUCUGGGCCAGGCAGGCAUCAAAAGAAAUAGUCUUGCGCUCAACCAGAAAGUCUGUAAUCAUUUUAAGGGUA | 1.93 |
| GUUAACGGUCAUAGGCCAUGGAAACUAGGAGCACCAUUUCGCUGCCAGUGAAGAAAUGAACAAGGAAAAUCUGGGCCAGGCAGGCAUCAAAAGAAAUAGUCAUGCGCUCAACCAGAAAGUCUGUAAUCAUUUUAAGGGUA | 0.68 |
| GUUAACUGUCAUAGGCCAUGGAAACUAGGAGCACCAUUUCGCUGCCAGUGAAGAAACGAACAAAGAAAAUCUGGGCCAGGCAGGCAUCAAAAGAAAUAGUCUUGCGCUCAACCAGAAAGUCUGUAAUCAUUUUAAGGGUA | 1.41 |
| GUUAACGGUCAUAGGCCAUGGAAACUAAGAGCACCAUUUCGCUGCCAGUGAAGAAAUGAACAAAGAAAAUCUGGGCCAGGCAGGCUUCAAAAGAAAUAGUCUUGCGCUCAACCAGAAAGUCUGUAAUCAUUUUAAGGGUA | 1.88 |
| GUUAACGGUCAUAGGCCAUGGAAACUAGGAGCACCACUUCGCUGCCAGUGAAGAAAUGAACAAAGAAAAUCUGGGCCAGGCAGGCAUCAAAAGAAAUAGUCUUGCGCUCAACCAGAAAGUCUGUAAUCAUUUUAAUGGUA | 1.97 |
| GUUAACGGUCAUGGGCCAUGGAAACUAGGAGCACCAUUUCCCUGCCAGUGAAGAAAUGAACAAAGAAAAUCUGGGCCAGGCAGGCAUCAAAAGAAAUAGUCUUGCGCUCAACCAGAAAGUCUGUAAUCAUUUUAAGGGUA | 1.02 |
| GUUAACGGUCAUAGGCCAUGGAAACUAGGAGCACCAUUUCGCUGCCAGUGAAGAAAUGAGCAAAGAAAAUCUGGGCCAGGCAGGCAUCAAAAGAAAUAGUCUUGAGCUCAACCAGAAAGUCUGUAAUCAUUUUAAGGGUA | 0.04 |
| GUUAACGGUCAUAGGCCAUGGAAACUAGGAGCACCAUUUCGCUGCCAGUGAAGAAAUGAACAAAGAAAAUCUGGGCCAGGCAGGCAUCAAAAGAAAUAGUCUUGCGCUCAACCGGAAAGUCUGUAGUCAUUUUAAGGGUA | 0.28 |
| GUUAACGGUCAUAGGCCACGGAAACUAGGAGCACCAUUUCGCUGCCAGUGAAGAAAUGAACAAAGAAAAUCUGGGCCAGGCAGGGAUCAAAAGAAAUAGUCUUGCGCUCAACCAGAAAGUCUGUAAUCAUUUUAAGGGUA | 1.02 |
| GUUAACGGUCAUAGGCCAUGGAAACUAGGAGCACCAUUUCGCUGCCAGUGAAGAAAUGAACAAAGAAAAUCUGGGCCAGGCAGGCAACAAAAGGAAUAGUCUUGCGCUCAACCAGAAAGUCUGUAAUCAUUUUAAGGGUA | 1.64 |
| GUUAACGGUCAUAGGCCGUGGAAACUAGGAGCACCAUUUCGCUGCCGGUGAAGAAAUGAACAAAGAAAAUCUGGGCCAGGCAGGCAUCAAAAGAAAUAGUCUUGCGCUCAACCAGAAAGUCUGUAAUCAUUUUAAGGGUA | 1.14 |
| GUUAACGGUCAUAGGCCAUGGAAACUAGGAGCACCAUUUCGCUGCCAGUGAAGAAAUGAACAAAGAAGAUCUGGGCCAGGCAGGCAUCAAAAGAAAUAGUCUUGCGCUCAACCAGAAAGUCUGUAGUCAUUUUAAGGGUA | 0.6 |
| GUUAACGGUCAUAGGCCAUGGAAACUAGGAGCACCAUUUCGCUGCCAGUGAAGAAAUGAACAAAGAAAAUCAGGGCCAGGCAGGCACCAAAAGAAAUAGUCUUGCGCUCAACCAGAAAGUCUGUAAUCAUUUUAAGGGUA | 0.19 |
| GUUAACGGUCAUAGGCCAUGGAAACUAGGAGCACCAUUUCGCUGCCAGUGAAGAAAUGAACAAAGAAAAUCUGGGCCAGGCAAGCAUCAAAAUAAAUAGUCUUGCGCUCAACCAGAAAGUCUGUAAUCAUUUUAAGGGUA | 2.03 |
| GUUAACGGUCAAAGGCCAUGGAAACUAGGAGCACCAUUUCGCUGCCAGUGAAGAAAUGAACAAAGAAAAUCUGGGCCAGGCAGGCAUCAAAAGAAUUAGUCUUGCGCUCAACCAGAAAGUCUGUAAUCAUUUUAAGGGUA | 1.67 |
